Common to all, as to assay: SPR
Background: Surface plasmon resonance follows binding to a sensor surface in real time, without labels.

For assay [1], the target named is Syrian hamster FcγRIIb, soluble ectodomain (Syrian hamster (Mesocricetus auratus)).
The target in assay [2] is Syrian hamster FcγRIV, soluble ectodomain (Syrian hamster (Mesocricetus auratus)).
In assay [3] the target is Syrian hamster FcγRI, soluble ectodomain (Syrian hamster (Mesocricetus auratus)).
Assay [4] deals with Syrian hamster FcγRIII, soluble ectodomain (Syrian hamster (Mesocricetus auratus)).

By Kd is commonly meant the constant that tells how readily two partners part at equilibrium. A higher Kd goes with lower affinity. In the case of Hamster IgG1, the Kd in assay [1] is 56.2 nM; in assay [2], greater than 1000 nM; in assay [3] it was greater than 1000 nM; in assay [4], 35.5 nM.
Hamster IgG2a: the Kd in assay [1] worked out at 1030 nM; in assay [2] it was 17.1 nM; in assay [3], 496 nM; in assay [4] it was 702 nM.
In the case of Mouse IgG1, the Kd in assay [1] is 143 nM; in assay [2], greater than 1000 nM; in assay [3], greater than 1000 nM; in assay [4] it was 78.1 nM.
As to Mouse IgG2a, the Kd in assay [1] worked out at 1140 nM; in assay [2] it was 14.7 nM; in assay [3] it was 338 nM; in assay [4] it was 572 nM.
For the substance “human IgG1 Fc domain variant GAALIE (from UniProt P01857)”, the dissociation constant (Kd) in assay [1] is 328 nM; in assay [2] it was 9.52 nM; in assay [3], greater than 1000 nM; in assay [4], 233 nM.
The corresponding values for “human IgG1 Fc domain variant V11 (from UniProt P01857)” are 345 nM, greater than 1000 nM, greater than 1000 nM and 260 nM.
The corresponding values for “wild-type human IgG1 (from UniProt P01857)” are greater than 1000 nM, 102 nM, 737 nM and greater than 1000 nM.
